From publication PMC10321576, “Cyclic peptides target the aromatic cage of a PHD-finger reader domain to modulate epigenetic protein function†” (Chemical Science, 2023)
One block for each binder: values may come before it. Bridge positions count the residues as written; N and C are the ends. Square brackets hold non-standard residues; d marks the D form. Ends that are not written are not given here. Lys(Me3) = C[N+](C)(C)CCCC[C@H](N)C(=O)O

How the values were obtained:
KDM7B PHD-finger [1] = molecular target: T1, KDM7B PHD-finger (UniProt Q9UPP1-2 1-447); test: AlphaScreen or HTRF; proximity assay of His-tagged protein and biotinylated H3(1-21)K4me3; displacement by titrated unlabelled peptide; conditions: both partners purified
T1 sequence (Q9UPP1 37-483): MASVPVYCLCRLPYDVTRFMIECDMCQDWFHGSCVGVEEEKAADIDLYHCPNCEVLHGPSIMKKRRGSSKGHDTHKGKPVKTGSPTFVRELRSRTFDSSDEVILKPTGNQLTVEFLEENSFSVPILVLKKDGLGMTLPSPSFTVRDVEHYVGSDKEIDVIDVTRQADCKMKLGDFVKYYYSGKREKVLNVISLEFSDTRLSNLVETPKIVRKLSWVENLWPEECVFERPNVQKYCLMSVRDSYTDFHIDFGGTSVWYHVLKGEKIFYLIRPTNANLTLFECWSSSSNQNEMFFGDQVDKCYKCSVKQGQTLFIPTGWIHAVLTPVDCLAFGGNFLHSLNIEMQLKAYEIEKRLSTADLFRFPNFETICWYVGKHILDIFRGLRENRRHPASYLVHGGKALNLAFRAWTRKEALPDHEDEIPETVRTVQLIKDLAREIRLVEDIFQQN

[2] = molecular target: T2, KDM7B (PHF8, JHDM1F) dual domain (PHD-JmjC) (UniProt Q9UPP1-2 1-447); test: cell-based or functional assay
T2 sequence (Q9UPP1 37-483): as above

KDM7B PHD-finger [3] = molecular target: T1, KDM7B PHD-finger; test: BLI; association and dissociation of the cyclic peptide (2-fold serial dilution) on the protein; curve fittings with a 1:1 binding model; conditions: both partners purified
[4] = molecular target: T2, KDM7B (PHF8, JHDM1F) dual domain …; test: as above; conditions: both partners purified
KDM7B PHD-finger [5] = molecular target: T1, KDM7B PHD-finger; test: ITC; binding curves fitted with a 1:1 binding model; conditions: both partners purified
[6] = molecular target: T2, KDM7B (PHF8, JHDM1F) dual domain …; test: as above; conditions: both partners purified
KDM7B PHD-finger [7] = molecular target: T1, KDM7B PHD-finger; test: NMR titration; 1H-15N HSQC and 1H-NMR of isotopically labelled KDM7B PHD-finger, apo or with peptide; conditions: both partners purified
KDM7B PHD-finger [8] = molecular target: T1, KDM7B PHD-finger; test: BLI + AlphaScreen or HTRF; SAR of OC9 variants on KDM7B PHD-finger by affinity (BLI) and displacement (AS) assays; the sentence does not tell which gave the result; conditions: both partners purified

B2: OC9 V10DV (peptide)
chain: YYLTHPYPS[dV]FRTC
modifications: ends and bridges not checked
Kd (KDM7B PHD-finger [3]): > 10000 nM
Kd (KDM7B PHD-finger [7]): 503000 ± 1000 nM

B4: OC9 with trans-4-fluoroproline at P6 (peptide)
chain: YYLTH[trans‑4‑fluoroproline]YPSVFRTC
modifications: ends and bridges not checked
fold higher affinity against the cis-fluoro variant at P6 (KDM7B PHD-finger [8]): > 10 fold

The next lines start with the values.

IC50 (KDM7B PHD-finger [1]): 32 nM
IC50 of inhibition of KDM7B demethylation of H3(1–21)K4me3K9me2, MALDI-TOF MS based assay [2]: 1190 nM
IC50 of inhibition of KDM7B demethylation of H3(1–21)K9me2, MALDI-TOF MS based assay [2]: 510 nM
Kd (KDM7B PHD-finger [3]): 4 nM
dissociative half-life t1/2 (KDM7B PHD-finger [3]): 8.1 min
Kd [4]: 6 nM
dissociative half-life t1/2 [4]: 2.8 min
Kd (KDM7B PHD-finger [5]): 12 nM
Kd [6]: 11 nM
B1: OC9, de novo cyclic peptide from mRNA display (peptide)
chain: {CH2CO}-YYLTHPYPSVFRTC
modifications: thioether N-14

IC50 (KDM7B PHD-finger [1]): 316 nM
Kd (KDM7B PHD-finger [3]): 533 nM
B3: OC9 V10Kme3 (peptide)
chain: YYLTHPYPS[Lys(Me3)]FRTC
modifications: ends and bridges not checked
